Data published in PMC4914113, “Another look at the mechanism involving trimeric dUTPases in Staphylococcus aureus pathogenicity island induction involves novel players in the party” (Nucleic Acids Research, 2016).

Biological target: Dut80α^Y84I (Staphylococcus aureus phage 80α)
Experiment: BLI; as a1, buffer STL supplemented with 0.5 mM dUPNPP (baselines and dissociation without nucleotide); 1:1 model

“Stl repressor from SaPIbov1 (natural protein)” was tested. Which Kd did it give?
Its Kd is > 1000 nM.
